In general, EC50 refers to the concentration giving half of the maximal effect.

Consider 7 molecules from US20230391854A1 (Innovent, published 2023).

B1: P23-29 (antibody, V domains shown)
VH: QVQLQESGPGLVKPSETLSLTCTVSGDSISSSTYYWGWIRQPPGKGLEWIGSMYYGRSTYYNPSLKSRVTVSVDTSKNQLSLKVSSVTAADTAVYYCARHLGGVDYWGQGTLVTVSS
VL: DIQMTQSPSSLSASVGDRVTITCRASQGISNSLAWYQQEPGKAPKLLLYAASTLESGVPSRFSGSGSGADSTLTISSLQPEDFATYYCQQYYSASALTFGGGTKVEIK
notes: also called candidate antibody molecule P23-29
B2: P5-22 (antibody, V domains shown)
VH: EVQLVESGGGLVKPGGSLRLSCAASGFTFRDYDIIWIRQAPGKGLEWVSYISRSGSTIYYSDSVRGRFTISRDNAKNSVYLQMNSLRAEDTAVYYCARDFGFEGPRMDVWGQGTTVTVSS
VL: DIQMTQSPSSLSASVGDRVTITCQASQDIKNYLNWYQQKPGKAPKLLIYDASNLETGVPSRFSGSGSGTDFTFTISSLQPEDIATYYCQQFDNLPITFGQGTRLEIK
notes: also called candidate antibody molecule P5-22
B3: P15-16 (antibody, V domains shown)
VH: QVQLVESGGGLVQPGRSLTLSCAASGFTFDDYAMHWVRQAPGKGLEWVSGISWNSGTIDYADSVKGRFTISRDNAKNSLYLQMNSLRAEDTALYYCATLPRERAYSGYDRIFYTIDVWGQGTTVTVSS
VL: not shown
notes: also called candidate antibody molecule P15-16
B4: P3-11 (antibody, V domains shown)
VH: QVQLVESGGGLVQPGGSLRLSCAASGITVSSNYMSWVRQAPGKGLEWVSVIYSGGSTFYADPVKGRLTISRDNSKNTLYLQMNSVRVEDTAVYYCARGEGWELPFDYWGQGALVTVSS
VL: QSALTQPPSASGSPGQSVTISCTGTSSDVGGNKYVSWYQQHPGKAPKLIIYEVSKRPSGVPDRFSGSKSGNTASLTVSGLQAEDEADYHCSSYAGSNNLVFGGGTKLTVL
notes: also called candidate antibody molecule P3-11
B5: P14-37 (antibody, V domains shown)
VH: EVQLVESGGGLVKPGGSLRLSCAASGFTFSNAWMSWVRQAPGKGLEWVGRIKRNSDGGTTDHAAPVTGRFIISRDDSKNTLYLQMNSLRTEDTAVYYCTTDLDTVVRRVVITDHDAFDIWGQGTMVTVSS
VL: DIQMTQSPSSLSASVGDRVTITCRASQSISSFLNWYQQKAGKAPKLLIYAASSLQSGVPSRFSGSGSGTDFSLTISNLQPEDFATYYCQQSYSTPSITFGQGTRLEIK
notes: also called candidate antibody molecule P14-37
B6: P14-44 (antibody, V domains shown)
VH: QVQLVQSGAEVKKPGASVKVSCKASGYIFTSYSMHWVRQAPGQGLEWMGTIKPSDDSTNYAQKFQGRVSMTRDTSTSTVYMELSSLRYEDTAVYYCAREARGYYDRSGYYHPGYFDYWGQGTLVTVSS
VL: QSVLTQPASVSGSPGQSITISCTGTSSDVGGYNFVSWYQQHPGKAPKLMIYEVSDRPSGVSSRFSGSKSGNTASLTISGLQAEDEADYYCFSYTTSTTWVFGGGTKLTVL
notes: also called candidate antibody molecule P14-44
B7: P10-20 (antibody, V domains shown)
VH: QVQLVESGGGLVKPGGSLRLSCAASGFTFSDYYMSWIRQAPGKGLEWVSYISISSTYTNYADSVKGRFTISRDNAKNSLYLQMNSLRAEDTAVYYCVIAAAGKGHYYYGMDVWGQGTTVTVSS
VL: not shown
notes: also called candidate antibody molecule P10-20

This assay concerns the target nCoV S (ACRO, SPN-C52H4) (SARS-CoV-2, UniProt P0DTC2 16-1213).
In turn, B1 displayed a concentration for a half-maximal effect (EC50) of 36.4 pM.
As for B2, the 50% effective concentration (EC50) came out at 22.6 pM.
The figure for B3 is 22.8 pM; for B4 it is 22.6 pM.
Then B5, with 16.1 pM.
Then B6, with 21.3 pM; and B7, with 18.4 pM.
